The supplement of paper PMC10724198
± gives the standard deviation of the averaged measurements.

system: Saccharomyces cerevisiae; assay: protein stability index of tFT-peptide fusion (C-terminal peptide) (PSI (0-1 scale)); higher = more stable (slower turnover); conditions: genetic background: wild type; temperature: 30 C
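Note: PSI is a weighted mean of sequencing reads over stability bins, variants kept only with over 10 reads, mCherry proximal and sfGFP distal, peptide attached via GGGS linker.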

Sequence | protein stability index
VHRYGGFRGEMS | 0.702 ± 0.08
VHSGSVDVSSFS | 0.697 ± 0.018
VHSSWRVAACGK | 0.698 ± 0.031
VHVLLSGVICAL | 0.471 ± 0.061
VIAEHCSKQGLI | 0.639 ± 0.018
VIGGGRVLGIGG | 0.653 ± 0.1
VIGGRQGVVRHR | 0.68 ± 0.025
VIGIRNGADMSI | 0.667 ± 0.013
VIPLSARGEEGD | 0.7001 ± 0.0035
VIPTYESNDRQS | 0.652 ± 0.064
VIQVRDLRLFSR | 0.734 ± 0.028
VIRPMTVYSVVS | 0.515 ± 0.029
VIRSLPSSALPL | 0.662 ± 0.08
VITYKKKNTRKQ | 0.673 ± 0.093
VKIYSSPFFCLI | 0.57 ± 0.011
VKLSVITGCRVT | 0.659 ± 0.092
VKSSIGWLKVGF | 0.671 ± 0.15
VKSSSCSVLRSL | 0.7 ± 0.038
VKTETNTDGKKR | 0.67 ± 0.15
VKVAFSIASRVD | 0.79 ± 0.0028
VLAGFVLNDWVP | 0.731 ± 0.023
VLCRPLLPTSRL | 0.772 ± 0.02
VLDRGGAGAVCV | 0.649 ± 0.024
VLFATLHVMALK | 0.55 ± 0.026
VLFDGSWSGSYL | 0.741 ± 0.15

Sequence | protein stability index
VLGFGGVVLFFL | 0.642 ± 0.06
VLGGGLGVLTWV | 0.753 ± 0.018
VLGGSGFAGSPS | 0.659 ± 0.014
VLGLGSGGVCGG | 0.693 ± 0.023
VLGRLRGGRDRV | 0.723 ± 0.023
VLGSVGGFVQRD | 0.677 ± 0.036
VLGVFFGSVEGC | 0.68 ± 0.05
VLLFALSPHPPS | 0.724 ± 0.024
VLLPRIRPSYSL | 0.674 ± 0.045
VLLRLVGLCQYL | 0.50067 ± 0.0004
VLLSFLHLTASS | 0.606 ± 0.03
VLPGCFSISAPP | 0.7038 ± 0.0062
VLPLFSSFSRSP | 0.674 ± 0.058
VLPPPPTRPLLP | 0.743 ± 0.019
VLPRVLADVRST | 0.685 ± 0.03
VLPTHCPPPSSR | 0.715 ± 0.017
VLRGMSVFGLGE | 0.74 ± 0.14
VLRGVNGLRCRS | 0.6863 ± 0.0046
VLRIIMQCVFVR | 0.549 ± 0.0064
VLRLGFYNINKL | 0.676 ± 0.075
VLRVSRHLKAVK | 0.65 ± 0.024
VLSFALGSAGGR | 0.678 ± 0.069
VLSLCLSVRSFV | 0.562 ± 0.017
VLSLHPRRATLL | 0.615 ± 0.03
VLSVETGTSGLF | 0.655 ± 0.01

Sequence | protein stability index
VLTPLWIANTFL | 0.673 ± 0.057
VLVAWWGLGGGV | 0.637 ± 0.069
VLWLGSFKSPRR | 0.727 ± 0.022
VMGAGGRTVAEW | 0.719 ± 0.019
VMGIGAAVRRVR | 0.713 ± 0.02
VMVGRVLEKGVV | 0.654 ± 0.069
VMVMELHGYPVV | 0.655 ± 0.044
VMVVVGLQGTMV | 0.5962 ± 0.0032
VNCAYCRERKRD | 0.7209 ± 0.0031
VPCCSAVDLLVS | 0.5999 ± 0.0045
VPCYSSACHGDA | 0.669 ± 0.1
VPFYHIFPPFRP | 0.777 ± 0.088
VPFYSPPCYSCL | 0.628 ± 0.04
VPLRVSLGCDAF | 0.67 ± 0.04
VPPASLVCLTSP | 0.667 ± 0.0015
VPPNTLTAPHLF | 0.844 ± 0.046
VPPPSPTLSPHP | 0.656 ± 0.28
VPPPTAPVPPRP | 0.749 ± 0.096
VPRPPPHPPGDV | 0.622 ± 0.016
VPRTFQDLLPAP | 0.707 ± 0.04
VPSLFLYGNPMY | 0.71 ± 0.036
VPSLPSPCSSCA | 0.667 ± 0.046
VPSRTVTGTLPA | 0.681 ± 0.026
VPSVCPFLSVLL | 0.647 ± 0.035
VPSVGFSVHLLP | 0.692 ± 0.021

Sequence | protein stability index
VPVAAVGGGECG | 0.575 ± 0.044
VPWGGLRFRDWW | 0.659 ± 0.099
VPYGKILQQGDI | 0.658 ± 0.048
VQEEGYYLHSSL | 0.699 ± 0.021
VQLGLGPDSSRS | 0.694 ± 0.019
VQSGIRLIFGRA | 0.545 ± 0.014
VQVSGFPHSRTR | 0.691 ± 0.023
VQYGHIVKGWCS | 0.697 ± 0.013
VRAAAFCFVRFR | 0.55 ± 0.021
VRAEVSNVDYVS | 0.658 ± 0.0096
VRALCRYRTVNG | 0.685 ± 0.035
VRAVFPRSGLSC | 0.696 ± 0.048
VRCRLLDVGDAS | 0.642 ± 0.026
VRCSAASLKVRK | 0.675 ± 0.01
VRDRTSRGMRPA | 0.6945 ± 0.0043
VRDTTRTEKLGP | 0.687 ± 0.002
VREGKDREVSGF | 0.715 ± 0.031
VREKNHTLQMET | 0.646 ± 0.017
VRGGGRRACVVG | 0.607 ± 0.05
VRGGLVGRSVGC | 0.559 ± 0.08
VRGKGWRVGWWG | 0.668 ± 0.045
VRGRQGGGVGRA | 0.682 ± 0.1
VRHLGAIPQLSG | 0.637 ± 0.095
VRHSLFPCPSPT | 0.714 ± 0.035
VRHSPVVPANRP | 0.698 ± 0.094

Sequence | protein stability index
VRIRRNGAVSFM | 0.6829 ± 0.0038
VRITRPFKAPTP | 0.711 ± 0.0056
VRLWLSLRLGFS | 0.587 ± 0.068
VRNASEDSVGQL | 0.708 ± 0.046
VRNESGGRAAAS | 0.6988 ± 0.0016
VRQLRGPWMEYP | 0.682 ± 0.076
VRRGAAGDDWGW | 0.869 ± 0.057
VRRGCGVGACPG | 0.618 ± 0.017
VRRILLGPPGRD | 0.653 ± 0.085
VRRMLSSLIEGH | 0.619 ± 0.0072
VRRSHSGSNDVP | 0.673 ± 0.14
VRSCCFFLDAVW | 0.665 ± 0.029
VRSCFPVGMVWR | 0.72087 ± 0.00045
VRSLSSPPAPAT | 0.736 ± 0.038
VRSPLEHTVPFS | 0.655 ± 0.057
VRSRRQLPPADP | 0.723 ± 0.083
VRSYLARFEVYV | 0.531 ± 0.019
VRTSWRHESIKK | 0.618 ± 0.019
VRVRPAVRSGPE | 0.616 ± 0.006
VSCFVWFGFSCI | 0.5202 ± 0.0034
VSCPGWVVHVIV | 0.48 ± 0.079
VSDLFWAELIGN | 0.71 ± 5.7e-06
VSGGRQGGWGGW | 0.691 ± 0.034
VSGWDCEGDWVA | 0.76 ± 0.0096
VSLGHCGFYSRV | 0.648 ± 0.039

Sequence | protein stability index
VSLLSSDTRSAY | 0.753 ± 0.07
VSLPTAPFPLPS | 0.844 ± 0.084
VSLVYLDHLSRS | 0.702 ± 0.029
VSPLVRVFSCAI | 0.598 ± 0.033
VSQKQALVCPRI | 0.705 ± 0.085
VSRGRSAKKSAI | 0.695 ± 0.06
VSRTVLSSDHRG | 0.752 ± 0.076
VSRYRQWGSWER | 0.649 ± 0.013
VSSRHNCFRHGS | 0.696 ± 0.039
VSTLAPPQLQFK | 0.669 ± 0.081
VSVGCLFVVGRG | 0.713 ± 0.039
VSWVYNFKKIRS | 0.694 ± 0.078
VTCADEYYHSRR | 0.686 ± 0.03
VTECLRQWERLG | 0.545 ± 0.045
VTFTERIAIEWD | 0.703 ± 0.054
VTGIDGGSLCLR | 0.6842 ± 0.0059
VTGRTGGMWGAL | 0.754 ± 0.085
VTKNRHRQTETQ | 0.658 ± 0.036
VTLSPSLPGFPL | 0.6839 ± 0.00089
VTLTPPVLYTSL | 0.647 ± 0.059
VTVDLGCRATGE | 0.675 ± 0.067
